Results published in patent US20040043420A1, “Method of identifying conformation-sensitive binding peptides and uses thereof” (priority 2003, published 2004).

What was measured:
[1] = biological target: T1, glucocorticoid receptor (GR) (Homo sapiens, UniProt P04150); assay: Yeast-based two-hybrid test of peptide interaction with full-length glucocorticoid receptor; format: cell-based
T1 construct: in the yeast based system using full-length receptor; expressed in transfected cells; host or cells: yeast
T1 sequence (P04150 1-777): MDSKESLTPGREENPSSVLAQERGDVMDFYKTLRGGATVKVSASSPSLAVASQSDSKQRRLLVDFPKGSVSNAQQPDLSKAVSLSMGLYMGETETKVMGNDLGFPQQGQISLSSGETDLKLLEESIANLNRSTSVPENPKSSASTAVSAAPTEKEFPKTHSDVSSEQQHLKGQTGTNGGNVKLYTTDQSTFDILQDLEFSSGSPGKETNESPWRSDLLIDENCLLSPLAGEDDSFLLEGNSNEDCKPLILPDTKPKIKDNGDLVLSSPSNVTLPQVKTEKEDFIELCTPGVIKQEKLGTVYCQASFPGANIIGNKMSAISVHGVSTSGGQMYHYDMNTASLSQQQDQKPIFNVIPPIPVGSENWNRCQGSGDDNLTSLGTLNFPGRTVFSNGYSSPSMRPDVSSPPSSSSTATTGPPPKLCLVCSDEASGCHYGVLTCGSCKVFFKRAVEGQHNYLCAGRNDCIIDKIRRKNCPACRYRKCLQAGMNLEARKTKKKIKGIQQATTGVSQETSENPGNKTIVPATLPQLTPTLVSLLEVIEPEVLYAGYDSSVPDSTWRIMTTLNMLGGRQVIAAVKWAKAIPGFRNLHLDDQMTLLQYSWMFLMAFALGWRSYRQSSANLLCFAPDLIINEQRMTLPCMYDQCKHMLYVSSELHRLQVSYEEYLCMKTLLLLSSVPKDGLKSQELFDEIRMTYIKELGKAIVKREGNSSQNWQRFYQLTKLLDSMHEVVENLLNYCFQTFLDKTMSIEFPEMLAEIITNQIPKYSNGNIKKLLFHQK
Description: (§1) We have performed a limited amount of in vivo screenings for peptides to GR in the yeast based system using full-length receptor and either dexamethasone or medroxyprogesterone acetate as ligands. We have a single peptide sequence that we have followed up on based on its specificity profile in yeast. This peptide was isolated on MPA liganded GR, and is termed GRMPA. Its sequence is as follows: […] (SEQ ID NO:268).

[2] = biological target: T1, glucocorticoid receptor (GR); assay: Mammalian cell (Huh-7) based peptide/glucocorticoid receptor interaction assay, luciferase; conditions: all ligands (agonists, partial agonists, and antagonists)
Description: as §1
We have isolated numerous peptides using phage display to the GR ligand binding domain and have formatted cell based assays in mammalian cells for screening large compound sets. We have formatted the assay as stated above for 96-well plates and for 384-well plates. To format the assay to 384-well plates the number of cells per well were scaled down to 5,000 Huh-7 cells per well. Similar ratios of DNA constructs and lipection reagents were used in both assays for transfections prior to seeding the cells into the assay plates. We have also carried out a screen of a 60,000 compound set with one of the phage display isolated peptides in this mammalian cell based format. This peptide interacts with the glucocorticoid receptor in the presence of both agonists (e.g. fluticasone propionate and dexamethasone) and antagonists (RU486). For the compound screen cells were transfected in suspension with DNA constructs as described above prior to seeding 5,000 cells per well. […]

## EFVARYGQLLGWRHPCS [GRMPA]
[1]; fluticasone propionate and dexamethasone
  Interaction with GR in yeast in the presence of full agonists: not full agonists
[1]; partial agonists MPA, cortivazol, deoxycorticosterone, antagonist RU486
  Interaction with GR in yeast in the presence of partial agonists and antagonists: interacted
[2]
  Interaction with GR in mammalian cells in the presence of ligands: interacted in the presence of all ligands
